Test results as given in paper PMC11268095.

How the values were obtained:
Experiment in all cases: BLI; BLItz, Ni-NTA biosensor; phospho-His-SrcKD or variant (58 μM, 5 μL) immobilised as bait for 3 min; rPTPεD1 or variant as analyte, association 120 s, dissociation 120 s; 20 mM Tris-HCl pH 7.5, 50 mM NaCl, 5 mM DTT; 100 μM ATP and 1 μM CSK added before every immobilisation; global fit
[1] = target: phospho-His-SrcKD (phosphorylated His-tagged Src kinase domain, Trp 260-Leu 533, K295M/Y416F) (UniProt P00523)
[2] = target: phospho-His-SrcKD-D518K (phosphorylated His-tagged Src kinase domain, Trp 260-Leu 533, K295M/Y416F and a change at 518) (UniProt P00523)
[3] = target: phospho-His-SrcKD-E486A (phosphorylated His-tagged Src kinase domain, Trp 260-Leu 533, K295M/Y416F/E486A) (UniProt P00523)

Row | Substance | Kd [1] [µM] | koff [1] [s⁻¹] | kon [1] [M⁻¹ s⁻¹] | Kd [2] [µM] | koff [2] [s⁻¹] | kon [2] [M⁻¹ s⁻¹] | Kd [3] [µM] | koff [3] [s⁻¹] | kon [3] [M⁻¹ s⁻¹]
1 | rPTPεD1-K237D (D1 domain of rPTP epsilon, Ser 101-Thr 400, C335A/K237D) (domain or fragment) | 352 | 0.0853 | 242 |  |  |  |  |  | 
2 | rPTPεD1-R220E (D1 domain of rPTP epsilon, Ser 101-Thr 400, C335A/R220E) (domain or fragment) | 168 | 0.0341 | 202 |  |  |  |  |  | 
3 | rPTPεD1 (D1 domain of rPTP epsilon, Ser 101-Thr 400, C335A) (domain or fragment) | 26.2 | 0.0284 | 1080 | 184 | 0.0661 | 360 | 80.4 | 0.0476 | 592
